Reference: paper doi:10.1101/2020.10.19.344861 (bioRxiv, 2020)

B1: CynR (full length) (natural protein, Escherichia coli, UniProt P27111 1-299, looked up)
chain: MLSRHINYFLAVAEHGSFTRAASALHVSQPALSQQIRQLEESLGVPLFDRSGRTIRLTDAGEVWRQYASRALQELGAGKRAIHDVADLTRGSLRIAVTPTFTSYFIGPLMADFYARYPSITLQLQEMSQEKIEDMLCRDELDVGIAFAPVHSPELEAIPLLTESLALVVAQHHPLAVHEQVALSRLHDEKLVLLSAEFATREQIDHYCEKAGLHPQVVIEANSISAVLELIRRTSLSTLLPAAIATQHDGLKAISLAPPLLERTAVLLRRKNSWQTAAAKAFLHMALDKCAVVGGNESR
B2: cherry-core (CC) of CynR, effector binding domain (domain or fragment, Escherichia coli, UniProt P27111 59-299, looked up)
chain: DAGEVWRQYASRALQELGAGKRAIHDVADLTRGSLRIAVTPTFTSYFIGPLMADFYARYPSITLQLQEMSQEKIEDMLCRDELDVGIAFAPVHSPELEAIPLLTESLALVVAQHHPLAVHEQVALSRLHDEKLVLLSAEFATREQIDHYCEKAGLHPQVVIEANSISAVLELIRRTSLSTLLPAAIATQHDGLKAISLAPPLLERTAVLLRRKNSWQTAAAKAFLHMALDKCAVVGGNESR

Biological target: the molecule itself
Assay: SEC-MALS

Protein	stoichiometry N
B1	4
B2	2
